The experiment has as its target T1, ΔN100 y-mtRNAP (yeast mitochondrial RNA polymerase, RPO41) (Saccharomyces cerevisiae, UniProt P13433 101-1351).
T1 sequence (looked up): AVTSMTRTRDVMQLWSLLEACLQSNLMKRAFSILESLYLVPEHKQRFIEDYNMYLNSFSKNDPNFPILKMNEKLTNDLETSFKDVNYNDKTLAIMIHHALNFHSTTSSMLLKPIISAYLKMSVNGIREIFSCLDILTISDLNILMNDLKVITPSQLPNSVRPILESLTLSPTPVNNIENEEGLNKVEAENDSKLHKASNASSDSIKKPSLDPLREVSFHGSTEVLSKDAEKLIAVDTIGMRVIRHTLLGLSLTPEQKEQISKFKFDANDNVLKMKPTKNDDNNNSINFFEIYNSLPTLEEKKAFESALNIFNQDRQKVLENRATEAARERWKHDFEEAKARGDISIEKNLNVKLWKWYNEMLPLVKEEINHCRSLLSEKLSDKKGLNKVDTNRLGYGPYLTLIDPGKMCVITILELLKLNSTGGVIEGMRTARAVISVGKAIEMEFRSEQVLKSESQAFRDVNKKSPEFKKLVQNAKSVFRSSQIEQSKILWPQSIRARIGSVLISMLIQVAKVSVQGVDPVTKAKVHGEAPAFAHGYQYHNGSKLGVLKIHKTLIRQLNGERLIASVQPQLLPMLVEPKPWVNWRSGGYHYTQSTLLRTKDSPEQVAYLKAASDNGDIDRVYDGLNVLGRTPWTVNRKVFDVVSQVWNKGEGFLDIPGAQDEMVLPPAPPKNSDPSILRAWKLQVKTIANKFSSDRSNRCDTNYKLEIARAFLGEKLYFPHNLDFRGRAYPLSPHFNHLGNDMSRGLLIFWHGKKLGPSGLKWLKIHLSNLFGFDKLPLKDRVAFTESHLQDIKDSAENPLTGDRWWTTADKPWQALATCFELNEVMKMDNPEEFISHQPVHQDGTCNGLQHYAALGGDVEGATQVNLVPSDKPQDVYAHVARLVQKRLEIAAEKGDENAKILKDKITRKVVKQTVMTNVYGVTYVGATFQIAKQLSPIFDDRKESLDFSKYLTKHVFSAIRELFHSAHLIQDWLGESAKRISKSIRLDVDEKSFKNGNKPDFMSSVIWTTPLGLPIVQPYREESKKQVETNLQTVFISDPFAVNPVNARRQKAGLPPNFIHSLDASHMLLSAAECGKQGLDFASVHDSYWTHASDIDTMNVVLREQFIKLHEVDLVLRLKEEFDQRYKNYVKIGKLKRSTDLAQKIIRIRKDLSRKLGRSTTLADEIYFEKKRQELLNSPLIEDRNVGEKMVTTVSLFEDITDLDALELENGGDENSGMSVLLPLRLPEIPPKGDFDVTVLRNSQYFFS
Briefly: cryo-EM structure.

B1: MTF1 (yeast mitochondrial transcription factor) (natural protein, Saccharomyces cerevisiae)
chain: SVPIPGIKDISKLKFFYGFKYLWNPTVYNKIFDKLDLTKTYKHPEELKVLDLYPGVGIQSAIFYNKYCPRQYSLLEKRSSLYKFLNAKFEGSPLQILKRDPYDWSTYSNLIDEERIFVPEVQSSDHINDKFLTVANVTGEGSEGLIMQWLSCIGNKNWLYRFGKVKMLLWMPSTTARKLLARPGMHSRSKCSVVREAFTDTKLIAISDANELKGFDSQCIEEWDPILFSAAEIWPTKGKPIALVEMDPIDFDFDVDNWDYVTRHLMILKRTPLNTVMDSLGHGGQQYFNSRITDKDLLKKCPIDLTNDEFIYLTKLFMEWPFKPDILMDFVDMYQTEHSG
Turning to B1, the binding result was “binds”.

Source of the values: publication doi:10.1101/2022.09.27.509796 (bioRxiv, 2022).
